Here are results for 4 molecules from patent US6858210B1, “Therapeutic and diagnostic domain 1 β2GPI polypeptides and methods of using same” (La Jolla Pharmaceutical Co., priority 1998, dated 2005).

Where two headings read alike, the source gives them in different places.

In test [1] the test system is human β2GPI-dependent antiphospholipid antibody. Briefly: Micropanning of mutant domain 1 phage, patient antibodies. It counts as binding. As to conditions: Table 7B.
The subject of test [2] is rabbit anti-human β2GPI. Briefly: Micropanning of mutant domain 1 phage, rabbit antibody. It counts as binding. On the set-up: key: 0 (<10 colonies) to 4+ (confluent) semiquantitative colony score. As to conditions: Table 7B. In a few lines: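 Phage displaying error-prone-PCR mutants of β2GPI domain 1 (aa 1-64, fused to pIII N-terminus) incubated 2 h at RT with protein G-captured rabbit β2GPI-dependent antiphospholipid antibody (2.5 μg/mL); acid-eluted bound phage infected into E. coli. Colonies spotted and scored semiquantitatively 0 to 4+; run on two occasions.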

In test [3] the test system is affinity purified β2GPI-dependent antiphospholipid antibody. As to the kind of experiment: Competitive inhibition ELISA: recombinant β2GPI proteins compete for antibody binding to coated full length recombinant β2GPI. On the set-up: species or system human. As to conditions: for IC50: read-out: 50% (concentration to give 50% inhibition). Here is the method: Microtiter plates (MaxiSorp™, Nalge Nunc International, Denmark) were coated with 50 μl of full length recombinant β2GPI at 10 μg/ml in 0.1 M bicarbonate, pH 9.5, incubated overnight at 4° C., washed three times with 0.15 M PBS, pH 7.2, and blocked for one hour at room temperature with 75 μl of 2% Non-fat Dried Milk (Carnation, 2% NFDM). Test inhibitors were diluted in 2% NFDM and 25 μl of each dilution was added to coated wells. Affinity purified β2GPI-dependent antiphospholipid antibody was diluted in 2% NFDM and 25 μl, of a constant concentration, was added to the wells, including a group of wells that had no inhibitor, which acted as the positive controls. The contents of the wells were mixed and the plates were incubated at 37° C. for one hour. The plates were washed three times with PBS, 50 μl of alkaline phosphatase conjugated anti-human IgG, gamma chain specific, (Zymed #62-8422) diluted appropriately in 2% NFDM was added and incubated at 37° C. for one hour. The plates were washed three times with PBS, 50 μl of alkaline phosphatase PPMP chromogenic substrate solution was added and incubated for 30 minutes, at room temperature. The Optical Density, at 550 nm, was determined by reading the plates in a microplate autoreader (Bio-Teck Instruments, model EL3 11). The percent inhibition was determined by dividing the OD550 obtained in the presence of inhibitor by the mean OD550 obtained from the wells without inhibitor and then multiplying by 100 (more particularly, [mean A550 obtained from control wells without inhibitor less A550 of background] minus [A550 obtained in presence of inhibitor less A550 of background] divided by [mean A550 obtained from control wells without inhibitor less A550 of background] times 100).
Seven to nine different recombinant β2GPI mutant proteins were used to determine the antigenic specificity of affinity purified β2GPI-dependent antiphospholipid antibody preparations from 13 different patients. Each mutant recombinant β2GPI protein was tested, in a dose dependent fashion, for its ability to inhibit affinity purified β2GPI-dependent antiphospholipid antibody from binding to full length recombinant β2GPI. The following values were also observed for domain 1 only recombinant protein (1 - - - -; see Table 2 for designations): […]
On the technique in general: ELISA stands for enzyme-linked immunosorbent assay.

The subject of test [4] is rabbit anti-β2GPI. As to the kind of experiment: Direct binding ELISA, nickel chelate-coated wells, rabbit antibody. As to conditions: O.D. at 550 nm. Here is the method:
(§1) Nickel Chelate-coated microwell plates (NCP 010 00 Xenopore Corp. 374 Midland Ave. Saddle Brook, N.J. USA) were coated with 50 μl of serial dilutions of the various recombinant β2GPI, in PBS, at room temperature for 2 hours. The plates were washed three times with PBS and blocked with 75 μl of a 1% gelatin (Sigma #G-2500) in PBS for one hour room temperature. […] The plates were washed three times with PBS, 50 μl of alkaline phosphatase conjugated anti-immunoglobulin (anti-human IgG, gamma chain specific, Zymed #62-8422) or anti-rabbit IgG (Zymed #62-6122) diluted appropriately in 1% gelatin was added and incubated at 37° C. for one hour. The plates were washed three times with PBS, 50 μl of alkaline phosphatase PPMP chromogenic substrate solution was added and incubated for 30 minutes at room temperature. The optical density, at 550 nm, was determined by reading the plates in a microplate autoreader (Bio-Teck Instruments, model EL311).
(§2) Seven to nine different recombinant β2GPI mutant proteins were examined to determine if they could support the direct binding of affinity purified β2GPI-dependent antiphospholipid antibody preparations in the absence of anionic phospholipid. All recombinant mutant β2GPI were assayed with affinity purified β2GPI-dependent antiphospholipid antibody preparations from 11 different patients. Each mutant recombinant β2GPI protein was tested, in a dose dependent fashion and GST-6his was included as a negative control. The recombinant mutant β2GPI proteins were bound to nickel coated microtiter plates via their 6-his tail. All recombinant mutant β2GPI proteins tested bound rabbit anti-β2GPI showing that they were assessable by antibody (FIG. 5).

Test [5] relates to affinity purified β2GPI-dependent antiphospholipid antibody. Briefly: Direct binding ELISA, nickel chelate-coated wells charged with recombinant β2GPI proteins (no cardiolipin). On the set-up: species or system human. As to conditions: O.D. at 550 nm. The method, then:
as §1, §2

B1: 4G8: phage clone, domain 1 mutant P11L (protein)
chain: GRTCPKPDDLLFSTVVPLKTFYEPGEEITYSCKPGYVSRGGMRKFICPLTGLWPINTLKCTPRVAETVESCLAKLHTENSFTNVWKDDKTLDRYANYEGCLWNATGVVVCTGDETQCYGTWVPIGLAIPENEGGGSEGGGSEGGGSEGGGTKPPEYGDTPIPGYTYINPLDGTYPPGTEQNPANPNPSLEESQPLNTFMFQNNRFRNRQGALTVYTGTVTQGTDPVKTYYQYTPVSSKAMYDAYWNGKFRDCAFHSGFNEDPFVCEYQGQSSDLPQPPVNAGGGSGGGSGGGSEGGGSEGGGSEGGGSEGGGSGGGSGSGDFDYEKMANANKGAMTENADENALQSDAKGKLDSVATDYGAAIDGFIGDVSGLANGNGATGDFAGSNSQMAQVGDGDNSPLMNNFRQYLPSLPQSVECRPYVFGAGKPYEFSIDCDKINLFRGVFAFLLYVATFMYVFSTFANILRNKES
B1: the Micropan score in test [1] (antibody 6226) came out at 2; in test [1] (antibody 6501), 2; in test [1] (antibody 6632) it was 2; in test [1] (antibody 6644), 3; in test [1] (antibody 6701) it was 2; in test [1] (antibody 7008) it was 3. Besides, in test [2] (5th column), the Micropan score was determined as 4.

B2: 123--: recombinant β2GPI deletion mutant with domains 1, 2, 3 (protein)
chain: GRTCPKPDDLPFSTVVPLKTFYEPGEEITYSCKPGYVSRGGMRKFICPLTGLWPINTLKCTPRVCPFAGILENGAVRYTTFEYPNTISFSCNTGFYLNGADSAKCTEEGKWSPELPVCAPIICPPPSIPTFATLRVYKPSAGNNSLYRDTAVFECLPQHAMFGNDTITCTTHGNWTKLPECGHHHHHH
For the molecule B2, the “Max (maximum inhibition observed at concentrations tested)” value in test [3] (Ab 6203) stood at 75%; in test [3] (Ab 6501) it was 85%; in test [3] (Ab 6509), 90%; in test [3] (Ab 6626), 90%; in test [3] (Ab 6632) it was 90%; in test [3] (Ab 6641) it was 60%. The “Max (maximum inhibition observed at concentrations tested)” value in test [3] (Ab 6644) is given as 90%; in test [3] (Ab 6652), 95%; in test [3] (Ab 6701), 95%; in test [3] (Ab 7008) it was 80%; in test [3] (Ab 7015), 90%; in test [3] (Ab 7101) it was 70%. Besides, the “Max (maximum inhibition observed at concentrations tested)” value in test [3] (Ab 7104) amounted to 98%. Also, the IC50 in test [3] (Ab 6203) stood at 1000 nM; in test [3] (Ab 6501), 800 nM; in test [3] (Ab 6509), 300 nM; in test [3] (Ab 6626), 800 nM; in test [3] (Ab 6632) it was 200 nM; in test [3] (Ab 6641), 4000 nM. Moreover, the IC50 in test [3] (Ab 6644) came out at 700 nM; in test [3] (Ab 6652), 300 nM; in test [3] (Ab 6701), 300 nM; in test [3] (Ab 7008), 400 nM; in test [3] (Ab 7015), 700 nM; in test [3] (Ab 7101), 3000 nM. The IC50 in test [3] (Ab 7104) amounted to 1000 nM. Moreover, the “Maximum O.D.” value was 1.971 in test [4]; 0.938 in test [5] (Ab 6203); 0.909 in test [5] (Ab 6501); 1.250 in test [5] (Ab 6626); 0.121 in test [5] (Ab 6632); 0.530 in test [5] (Ab 6641). Further, the “Maximum O.D.” value in test [5] (Ab 6644) stood at 1.020; in test [5] (Ab 6652), 0.320; in test [5] (Ab 6701), 0.841; in test [5] (Ab 7008), 0.360; in test [5] (Ab 7015), 1.160; in test [5] (Ab 7101) it was 0.951.

B3: 4A6: phage clone, domain 1 mutant D8G (protein)
chain: GRTCPKPGDLPFSTVVPLKTFYEPGEEITYSCKPGYVSRGGMRKFICPLTGLWPINTLKCTPRV
For the molecule B3, the Micropan score in test [1] (antibody 6226) was determined as 2; in test [1] (antibody 6501) it was 2; in test [1] (antibody 6632), 2; in test [1] (antibody 6644), 3; in test [1] (antibody 6701) it was 2; in test [1] (antibody 7008) it was 2. This molecule yielded a Micropan score in test [2] (5th column) of 4.

B4: Dom5: phage displaying wild type (WT) domain 5 (protein)
chain: CKLPVKKATVVYQGERVKIQEKFKNGMLHGDKVSFFCKNKEKKCSYTEDAQCIDGTIEVPKCFKEHSSLAFWKTDASDVKPC
modifications: left off: large carriers
On to B4, for which the Micropan score in test [1] (antibody 6226), in test [1] (antibody 6501), in test [1] (antibody 6632), in test [1] (antibody 6644), in test [1] (antibody 6701) and in test [1] (antibody 7008) was 0 (0 symbolizing <10 colonies) in each case. Moreover, the Micropan score in test [2] (1st column) is listed as 4; in test [2] (2nd column), 4; in test [2] (3rd column), 4; in test [2] (4th column), 4; in test [2] (5th column), 0 (0 symbolizing <10 colonies).
